Reference: US20130109048A1, “METHOD FOR IN-VITRO MONITORING OF NEURONAL DISORDERS AND USE THEREOF” (ECOLE POLYTECHNIQUE FEDERALE DE LAUSANNE (EPFL), priority 2010, published 2013)
“Also recorded” adds a separate entry of the source.

B1: BDNF: recombinant human brain-derived neurotrophic factor (R&D Systems) (protein, UniProt P23560 19-247, looked up)
Neurotrophic factor BDNF …: APMKEANIRGQGGLAYPGVRTHGTLESVNGPKAGSRGLTSLADTFEHVIEELLDEDQKVRPNEENNKDADLYTSRVMLSSQVPLEPPLLFLLEEYKNYLDAANMSMRVRRHSDPARRGELSVCDSISEWVTAADKKTAVDMSGGTVTVLEKVPVSKGQLKQYFYETKCNPMGYTKEGCRGIDKRHWNSQCRTTQSYVRALTMDSKKRIGWRFIRIDTSCVCTLTIKRGR

Key:
[1] = system: rat primary cortical neurons; experiment: MEA recording of spontaneous electrical activity (population bursts), TrkB inhibitor experiments; format: cell-based; details: K252a 10 nM or 100 nM; 30 min recordings 45 min and 24 h after addition; cultures at 14-15 DIV
Method: Cortical cells were prepared and cultured as described previously (Van Pelt et al., 2004, IEEE Trans. Biomed. Eng., 51: 2051-2062). Cells were plated on multielectrode arrays (MEAs) and/or culture dishes, with prior surface coating by polyethylenimine (10 mg/ml, Fluka) and laminin (0.02 mg/ml, Gibco) in Neurobasal medium (MEAs) or poly-L-lysine (0.01%) in water (culture dishes), respectively, which allow the cells to readily attach to the surface and extend neurites. Plating density was 1′500 cells/mm^2 for MEAs, allowing for quick network formation and high multichannel electrophysiological recordings efficiency. A lower density of 500 cells/mm^2 was used for culture dishes, to facilitate cell counting and morphological analysis. […]
After 5 min of accommodation time following the mounting of each MEA inside the recording setup, spontaneous electrical activity from the cultured neurons was detected, amplified, and recorded at each of the 60 substrate extracellular electrodes simultaneously for 30 min at 20 kHz/channel. Recorded traces consisted in electric voltage signals whose sudden small large amplitude fluctuations are known to be produced by the nerve impulse discharges emitted by neurons growing in close proximity to the substrate electrodes that detect them extracellularly, directly related to the firing of action potentials by the neurons in the proximity of each electrode. […]

[2] = system: rat primary cortical neurons; experiment: Neuronal viability by counts of NeuN-positive nuclei; format: cell-based; details: cultures treated with K252a 10 nM or 100 nM
Method: Cultures were washed with PBS and fixed in 4% paraformaldehyde (Fluka/Sigma, Buchs, Switzerland) or in methanol (Merck, Germany) for PSD95 (Post-synaptic density protein of 95 kDa) staining for 10 min at 4° C. Cultures were incubated with NeuN antibody which reacts with fox-3 (1:500, Chemicon, Temecula, Calif.) or 2B4 antibody which reacts with huntingtin (1:500 Millipore, Zug, Switzerland), antibody which reacts with postsynaptic density protein of 95 kDa (PSD95) (Sans et al., 2000, J. Neurosci. 20:1260-71) (1:200, Affinity Bioreagents, Golden, Colo.) and antibody which reacts neuronal class III beta-tubulin Tuj1 (Jepsen et al., 2000, Cell 102(6): 753-763) (1:2000, Covance, Emerville, Calif.) in PBS containing 10% normal goat serum (NGS, Gibco, Invitrogen, Basel, Switzerland) and 0.1% Triton X-100 (TX, Fluka, Sigma, Buchs, Switzerland). Cultures were rinsed three times in PBS and then incubated for 1 hour with fluorescent goat anti-mouse secondary antibodies (for NeuN: 1:1000 Cy3-conjugated antibody from Jackson Immunoresearch Laboratories, WestGrove, Pa.; for 2B4: 1:1000 Alexa Fluor® 488-conjugated antibodies from Invitrogen, Basel, Switzerland, for Tuj1: 1:1000 Alexa Fluor® 594-conjugated antibody from Invitorgen, Basel, Switzerland). Where indicated, cultures were stained with Hoechst 33342 dye (Invitrogen, Basel, Switzerland). […]

[3] = system: htt171-82Q-expressing cortical cells; experiment: MEA recording of spontaneous electrical activity in Huntington's disease cell model with BDNF; format: cell-based, rat; details: BDNF 50 ng/ml added twice weekly
Description: Cells modeling in-vitro HD-related cortical dysfunction were engineered for use in a method according to the invention for showing that the effects of molecular changes on synaptic changes in cortical microcircuits exposed to mutant htt fragments could be measured by a method according to the invention. To this end, cortical cells E16-E19 Wistar rat embryos (Charles River, France) were engineered by lentiviral gene transfer using Human Immunodeficiency Virus Type 1 (HIV-1)-derived vectors to express the first 171 amino acids of normal or mutated htt under the control of a tetracycline response element-containing promoter as described in Rudinskiy et al., 2009, J. Neurochem., 111: 460-472 (FIGS. 1A,B) to achieve high transduction efficiency and high levels of transgene expression in rat primary cortical neurons following the protocol below.
Plasmids encoding the first 171 amino acids of mutated htt (htt171-82Q) (FIG. 6, SEQ ID NO: 14) or wild-type htt (htt171-18Q) (FIG. 6, SEQ ID NO: 15) under the control of a tetracycline-regulated element promoter, or the tetracycline-regulatable transactivator (tTA1) under the control of a phosphoglycerate kinase promoter were used to prepare self-inactivating lentiviral vectors (FIG. 1A) as described previously (Regulier et al., 2003, Hum. Mol. Genet., 12: 2827-2836). Lentiviral particles were re-suspended in phosphate-buffered saline (PBS)+1% bovine serum albumin and the particle content of viral batches was assessed by p24 ELISA (RETROtek, Gentaur, Paris, France) (Viral titering involves capture of p24 viral protein from the sample on a microtiter plate and detection with a second anti-p24 antibody and visualization via a colorimeteric horseradish-generated product detected at 450 nm) Cells were plated as described below. On the day following cell plating, cultures were infected with lentiviruses at ratios of 150 ng p24/1000 cells (tTA1) and 120 ng p24/1000 cells (htt171-82Q or htt171-18Q) (FIG. 1B).
Cortical cells were prepared and cultured as described previously (Van Pelt et al., 2004, IEEE Trans. Biomed. Eng., 51: 2051-2062). Cells were plated on multielectrode arrays (MEAs) and/or culture dishes, with prior surface coating by polyethylenimine (10 mg/ml, Fluka) and laminin (0.02 mg/ml, Gibco) in Neurobasal medium (MEAs) or poly-L-lysine (0.01%) in water (culture dishes), respectively, which allow the cells to readily attach to the surface and extend neurites. Plating density was 1′500 cells/mm^2 for MEAs, allowing for quick network formation and high multichannel electrophysiological recordings efficiency. A lower density of 500 cells/mm^2 was used for culture dishes, to facilitate cell counting and morphological analysis. Medium containing Neurobasal, 2% B-27 supplement (GIBCO, Invitrogen Corporation, ref 17504) and 10% horse serum (from GIBCO, Invitrogen Corporation, ref. 16050-130) was changed three times per week by removing 0.7 ml and adding 1 ml of fresh medium. Where indicated, recombinant human BDNF (R&D Systems, Minneapolis, Minn., USA) at a concentration of 50 ng/ml was added to the medium twice a week starting from in vitro day 4.
Commercial MEAs with planar TiN substrate electrodes (MultichannelSystems, Reutlingen, Germany) such as described in Potter and De Marse, 2001, above were employed for recording over long-term experiments the spontaneous electrical activity of mammalian neurons, maintained under healthy conditions ex-vivo. […]

[4] = system: htt171-82Q-expressing cortical cells; experiment: Counting of PSD95-positive plasma membrane subdomains (punctae) by immunostaining; format: cell-based, rat; details: BDNF 50 ng/ml added twice weekly; htt171-82Q cells
Method: Cultures were washed with PBS and fixed in 4% paraformaldehyde (Fluka/Sigma, Buchs, Switzerland) or in methanol (Merck, Germany) for PSD95 (Post-synaptic density protein of 95 kDa) staining for 10 min at 4° C. Cultures were incubated with NeuN antibody which reacts with fox-3 (1:500, Chemicon, Temecula, Calif.) or 2B4 antibody which reacts with huntingtin (1:500 Millipore, Zug, Switzerland), antibody which reacts with postsynaptic density protein of 95 kDa (PSD95) (Sans et al., 2000, J. Neurosci. 20:1260-71) (1:200, Affinity Bioreagents, Golden, Colo.) and antibody which reacts neuronal class III beta-tubulin Tuj1 (Jepsen et al., 2000, Cell 102(6): 753-763) (1:2000, Covance, Emerville, Calif.) in PBS containing 10% normal goat serum (NGS, Gibco, Invitrogen, Basel, Switzerland) and 0.1% Triton X-100 (TX, Fluka, Sigma, Buchs, Switzerland). […]
The synaptic status was investigated in htt171-82Q- and htt171-18Q-expressing cells. Numbers of PSD95-positive structures was quantified as described above as an indicator of postsynaptic specializations, which comprise zones where neurotransmitter receptors, particularly glutamate receptors, are clustered.

[5] = compared to non-BDNF-treated htt171-82Q sister cultures, 23 days in vitro

Molecule	PB (population burst) firing [1]	neuronal viability (NeuN counts) [2]	PB frequencies [3, 5]	inter-burst intervals (IBIs) [3, 5]	PB duration distribution ([3]; htt171-82Q cells)	size of individual PBs (numbers of individual action potentials) ([3]; htt171-82Q cells)	number of total spikes ([3]; htt171-82Q cells, 30 min recording)	PSD95-positive bouton-like plasma membrane subdomains (punctae) [4]
COC(=O)[C@@]1(O)C[C@H]2O[C@]1(C)n1c3ccccc3c3c4c(c5c6ccccc6n2c5c31)C(=O)NC4 [TrkB inhibitor, K252a]	dose- and time-dependent loss of PB firing	without influencing neuronal viability	–	–	–	–	–	–
B1	–	–	significantly increased PB frequencies	decreased IBIs	extended to both the IBI and duration distributions	did not completely restore the size of individual PBs	number of total spikes remained lower	increase PSD95-positive boutons; also recorded: reversed by BDNF treatment
